Sequences and labels used below:
B1: anti-EphrinB2 monoclonal antibody clone 31.19 (antibody, V domains shown)
VH: EVQLVESGGGLVQPGGSLRLSCAASGFTITGSWIHWVRQAPGKGLEWVAVIYPNNGATDYADSVKGRFTISADTSKNTAYLQMNSLRAEDTAVYYCARTSAWAQLGAMDYWGQGTLVT
VL: DIQMTQSPSSLSASVGDRVTITCRASQDVSTAVAWYQQKPGKAPKLLIYSASFLYSGVPSRFSGSGSGTDFTLTISSLQPEDFATYYCQQSYTTPPTFGQGTKVEIKR
notes: Synthetic phage antibody on the humanized 4D5 framework; also called YW31.19; 31.19 antibody
B2: anti-EphrinB2 monoclonal antibody clone 31.19.1D8 (antibody, V domains shown)
VH: B1 VH
VL: DIQMTQSPSSLSASVGDRVTITCRASQDVDSSLAWYQQKPGKAPKLLIYAASNLESGVPSRFSGSGSGTDFTLTISSLQPEDFATYYCQQSDDNPFTFGQGTKVEIKR
notes: also called YW31.19.1D8; 31.19.1D8 antibody
B3: anti-EphrinB2 monoclonal antibody clone 31.19.2D3 (antibody, V domains shown)
VH: B1 VH with I29V, T30S, G31S, S32G, Y52F, P53H, N55K, A57G
VL: B1 VL with Q89E, S91T, Y92D, T93S
notes: also called YW31.19.2D3; 31.19.2D3 antibody

Positions count from the first letter of the chain named.

T1 sequence (P52799 28-229 limits assumed): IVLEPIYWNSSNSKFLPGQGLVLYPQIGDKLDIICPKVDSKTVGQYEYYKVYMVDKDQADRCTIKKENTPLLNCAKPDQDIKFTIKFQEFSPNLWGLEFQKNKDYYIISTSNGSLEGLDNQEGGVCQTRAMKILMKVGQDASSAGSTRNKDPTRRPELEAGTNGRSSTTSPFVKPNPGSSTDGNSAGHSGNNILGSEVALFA
T2 sequence (P52800 29-232 limits assumed): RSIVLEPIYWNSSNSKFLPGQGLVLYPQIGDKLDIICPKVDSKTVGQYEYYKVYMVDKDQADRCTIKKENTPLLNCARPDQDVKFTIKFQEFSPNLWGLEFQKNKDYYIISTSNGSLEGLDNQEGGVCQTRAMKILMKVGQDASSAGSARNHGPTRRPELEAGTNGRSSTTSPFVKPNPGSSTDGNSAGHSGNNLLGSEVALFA

The first assay addresses T1, human EphrinB2-His (human, UniProt P52799 28-229, limits assumed).
T1 construct: Soluble His-tagged protein; also called His-tagged human EphrinB2; hEphrinB2; not shown: His tag
The experiment in a line: SPR BIAcore-3000, antibody coupled to CM5 chip (~500 RU), EphrinB2-His injected, 25 C. As to the method:
(§1) To determine the binding affinity of mouse anti-ephrinB2 Mabs, surface plasmon resonance (SRP) measurement with a BIAcore™-3000 was used (BIAcore, Inc., Piscataway, N.J.). Briefly, carboxymethylated dextran biosensor chips (CMS, BIAcore Inc.) were activated with N-ethyl-N′- (3-dimethylaminopropyl)-carbodiimide hydrochloride (EDC) and N-hydroxysuccinimide (NHS) according to the supplier's instructions. Anti-EphrinB2 antibody was diluted with 10 mM sodium acetate, pH 4.8, into 5 ug/ml before injection at a flow rate of 5 ul/minute to achieve approximately 500 response units (RU) of coupled antibody. Next, 1M ethanolamine was injected to block unreacted groups. For kinetics measurements, two-fold serial dilutions of either human or murine EphrinB2-His molecules (0.7 nM to 500 nM) were injected in PBS with 0.05% Tween 20 at 25° C. at a flow rate of 25 ul/min. Association rates (kₒₙ) and dissociation rates (koff) were calculated using a simple one-to-one Langmuir binding model (BlAcore Evaluation Software version 3.2). The equilibrium dissociation constant (Kd) was calculated as the ratio koff/kₒₙ. “NA” signifies that the measurement was not performed.
Take B1: binding was put at a Kd of 5.2 nM. This lies in the single-digit nanomolar range.

In the case of B2, the Kd came to 0.07 nM.

On to B3, for which binding was put at a Kd of 0.08 nM.

A further assay concerns the target T2, murine EphrinB2-His (murine, UniProt P52800 29-232, limits assumed).
T2 construct: Soluble His-tagged protein; also called His-tagged murine EphrinB2; murine antigen; not shown: His tag
Described as above. As to the method: as §1
B1 returned a Kd of 0.23 nM. This counts as sub-nanomolar.

For the molecule B2, binding was characterised by a dissociation constant (Kd) of 0.017 nM.

In turn, B3 gave a Kd of 0.015 nM.

The values above are taken from US20170275359A1 (Genentech, published 2017).
